The values below come from PMC7118906 (2020).

The target in this test is GPI (Homo sapiens, UniProt P06744). The test is described as follows: MST.

B1: GPD2 (protein)
chain: ADCISEPVNREPPSREAQLLTLQNTSEFDILVIGGGATGSGCALDAVTRGLKTALVERDDFSSGTSSRSTKLIHGGVRYLQKAIMKLDIEQYRMVKEALHERANLLEIAPHLSAPLPIMLPVYKWWQLPYYWVGIKLYDLVAGSNCLKSSYVLSKSRALEHFPMLQKDKLVGAIVYYDGQHNDARMNLAIALTAARYGAATANYMEVVSLLKKTDPQTGKVRVSGARCKDVLTGQEFDVRAKCVINATGPFTDSVRKMDDKDAAAICQPSAGVHIVMPGYYSPESMGLLDPATSDGRVIFFLPWQKMTIAGTTDTPTDVTHHPIPSEEDINFILNEVRNYLSCDVEVRRGDVLAAWSGIRPLVTDPKSADTQSISRNHVVDISESGLITIAGGKWTTYRSMAEDTINAAVKTHNLKAGPSRTVGLFLQGGKDWSPTLYIRLVQDYGLESEVAQHLAATYGDKAFEVAKMASVTGKRWPIVGVRLVSEFPYIEAEVKYGIKEYACTAVDMISRRTRLAFLNVQAAEEALPRIVELMGRELNWDDYKKQEQLETARKFLYYEMGYKSRSEQLTDRSEISLLPSDIDRYKKRFHKFDADQKGFITIVDVQRVLESINVQMDENTLHEILNEVDLNKNGQVELNEFLQLMSAIQKGRVSGSRLAILMKTAEENLDRRVPIPVDRSCGGL
Regarding B1, the Kd is 8.59 nM.

The term Kd denotes the free concentration of one partner at which half of the binding sites on the other are occupied at equilibrium, for simple one-to-one binding. Lower therefore signals a tighter complex.
